Patent US8058046B2, “Sesquiterpene synthases from patchouli” (Firmenich SA, priority 2003, dated 2011)

Assays:
[1] = Enzyme assay: conversion of FPP to sesquiterpenes by recombinant sesquiterpene synthase, GC / GC-MS analysis; format: biochemical; conditions: FPP as substrate; for main (major) sesquiterpene product formed: crude protein extract from E. coli expressing the recombinant synthase, GC-MS and retention index
Protocol: In a standard protein expression experiment, the expression plasmids containing the sesquiterpene synthase cDNAs as well as the empty plasmid (for negative control) were transformed into the BL21(DE3) or the BL21 STAR™ (DE3) E. coli cells (Novagen). Single colonies of transformed E. coli were used to inoculate 5 ml LB medium. After 5 to 6 hours of incubation at 37° C., the cultures were transferred to a 20° C. incubator and left 1 hour for equilibration. Expression of the protein was then induced by addition of 0.5 mM IPTG and the culture incubated over-night at 20° C. The next day, the cells were collected by centrifugation, resuspended in 0.5 ml Extraction Buffer (50 mM MOPSO pH 7, 5 mM DTT, 10% glycerol) and sonicated 3 times 30 s. The cell debris were sedimented by centrifugation 30 min at 18,000 g and the supernatant containing the soluble proteins was recovered. The expression of the sesquiterpene synthases was evaluated by separation of the protein extract on a SDS-PAGE, staining with coomassie blue and comparison to protein extract obtained from cells transformed with the empty plasmid.
The enzymatic assays were performed in Teflon sealed glass tubes using 50 to 100 μl of protein extract in a final volume of 1 mL Extraction Buffer supplemented with 15 mM MgCl2 and 100 to 250 μM FPP (Sigma). The medium was overlaid with 1 ml pentane and the tubes incubated over-night at 30° C. The pentane phase, containing the sesquiterpenes, was recovered and the medium extract with a second volume of pentane. The combined pentane fractions were concentrated under nitrogen and analyzed by Gas Chromatography on a on a Hewlett-Packard 6890 Series GC system using a 0.25 mm inner diameter by 30 m SPB-1 (Supelco) capillary column. The carrier gas was He at constant flow of 1.6 ml/min. Injection was done in splitless mode with the injector set at 200° C. and the oven programmed from 100° C. (0 min hold) at 7.5° C./min to 200° C. (0 min hold) followed by 20° C./min to 280° C. (2 min hold). Detection was made with a flame ionization detector. Compound identification was based on retention time identity with authentic standards when available. For confirmation of the products identities, samples were analyzed by combined capillary GC-MS using a Hewlett-Packard 6890 GC-quadrupole mass selective detector system, equipped with a 0.25 mm inner diameter by 30 m SPB-1 (Supelco) capillary column. The oven was programmed from 80° C. (0 min hold) to 280° C. at 7° C. at a constant flow of 1.5 ml/min He. The spectra were recorded at 70 eV with an electron multiplier voltage of 2200V. Retention time of the enzyme products were compared to the retention time of authentic standard, or the Kovats retention index was calculated and compared to published data (Joulain, D., and König, W. A. The Atlas of Spectral Data of Sesquiterpene Hydrocarbons, EB Verlag, Hamburg, 1998).
For the biochemical characterization of the sesquiterpene synthases for which the full-length cDNA was isolated, the cDNA was ligated into appropriate expression plasmids. This plasmid were used to transform E coli cells and after expression of the recombinant proteins, the E coli proteins were extracted and used to evaluate the biochemical conversion of FPP to sesquiterpene compounds (see Examples 5 and 6).

[2] = test system: BL21 (DE3) E. coli cells; assay: In vivo sesquiterpene production assay in E. coli from the endogenous FPP pool; format: cell-based; conditions: E. coli cells expressing the synthase, 24 hours after 1 mM IPTG, pentane extract, GC / GC-MS; none with empty plasmid
Protocol: Experiments were performed using E. coli, to test the ability of the patchoulol synthase to synthesise, in vivo, sesquiterpenes from the endogenous FPP pool. Typical experiments for evaluation of in vivo sesquiterpene production are performed as follows. The expression plasmid containing the sesquiterpene synthase cDNA are transformed in BL21 (DE3) E. coli cells. Single colonies of transformed cells are used to inoculate 5 mL LB medium supplemented with the appropriate antibiotics. After 5 to 6 hours of incubation at 37° C., the culture were use to inoculate 100 ml TB medium supplemented with the appropriate antibiotics and the culture was incubated for 2 hours at 20° C. in a 250 mL shake flask. After 2 hours incubation, expression of the protein was induced by the addition of 1 mM IPTG. The cultures were left 24 hours and were then directly extracted twice with one volume of pentane. The two solvent fractions were recovered, combined and concentrated to 0.5 mL prior to GC-MS analysis. […] Patchoulol could be clearly detected by GC analysis of the culture extract, and no patchoulol was detected with cells transformed with the empty plasmid. The identity of the product could be confirmed by GC-MS, but the amount of sesquiterpene produced was relatively low and estimation of the quantities was not possible.

[3] = estimated by GC (flame ionization detection)

B1: PatTpsA: recombinant γ-curcumene synthase from patchouli (Pogostemon cablin), cDNA SEQ ID NO:1 (protein)
chain: MAAFTANAVDMRPPVITIHPRSKDIFSQFSLDDKLQKQYAQGIEALKEEARSMLMAAKSAKVMILIDTLERLGLGYHFEKEIEEKLEAIYKKEDGDDYDLFTTALRFRLLRQHQRRVPCSVFDKFMNKEGKFEEEPLISDVEGLLSLYDAAYLQIHGEHILQEALIFTTHHLTRIEPQLDDHSPLKLKLNRALEFPFYREIPIIYAHFYISVYERDDSRDEVLLKMAKLSYNFLQNLYKKELSQLSRWWNKLELIPNLPYIRDSVAGAYLWAVALYFEPQYSDVRMAIAKLIQIAAAVDDTYDNYATIREAQLLTEALERLNVHEIDTLPDYMKIVYRFVMSWSEDFERDATIKEQMLATPYFKAEMKKLGRAYNQELKWVMERQLPSFEEYMKNSEITSGVYIMFTVISPYLNSATQKNIDWLLSQPRLASSTAIVMRCCNDLGSNQRESKGGEVMTSLDCYMKQHGASKQETISKFKLIIEDEWKNLNEEWAATTCLPKVMVEIFRNYARIAGFCYKNNGDAYTSPKIVQQCFDALFVNPLRI
modifications: Pogostemon cablin
[1]
  main (major) sesquiterpene product formed: γ-curcumene
[1]; crude protein extract
  sesquiterpene synthase activity in recombinant E. coli protein extract: low

B2: PatTpsBF2: recombinant (−)-germacrene D synthase from patchouli, cDNA SEQ ID NO:2 (protein)
chain: MELKNQSVAIISSNASRPLAHYHPDVWGDRFLLYKPNPSSEAGQKPVIEELKQQVRSELKEASNDYMRQLKMVDAIQRLGIESLFEEDIDNALKNLSENFDDYCKDKHDLYAIALSFRLLRQHGYRISCDVFDKLKDGEDGFKVPPSDEALAVVELLEATHLRIHGEVVLDRAFVFARIHLESIEANLNNPVAKQVHNALYGYSNRRGMQQVEARKYIPIYEQYASHHQGLLKLATLNFNLQQTMHKRELSELSRWYRDLEVPTMLPFARQRLVETYFWDAGVVFEPENDVARMILVKVQCLISFLDDTFDAYGSFEELQLFTDAINTWDVSCLDQLPDYMKIIYKALLGVFEVIEKLMIKQGTLYRLNYAKEAMKIVVGGYFVEAKWREEKSKPTTQEYMQVATKSAGYMTLIITSFLGMEANIATKEAFDWVLSEPDVMKAAITLARLTNDIVGIELEKERKHIATAVEVYEDEHKLSMQEAMVEIKNQIESGWKTINEAFLRPTKFPTPILYRILNYCRVLEVIYDKSDRYTHVDPALQDIIKQLYIHPIP
modifications: Pogostemon cablin
[1]
  main (major) sesquiterpene product formed: (−)-germacrene D
[1]; crude protein extract
  sesquiterpene synthase activity in recombinant E. coli protein extract: could be detected

B3: PatTps177: recombinant patchoulol synthase from patchouli, cDNA SEQ ID NO:5 (protein)
chain: MELYAQSVGVGAASRPLANFHPCVWGDKFIVYNPQSCQAGEREEAEELKVELKRELKEASDNYMRQLKMVDAIQRLGIDYLFVEDVDEALKNLFEMFDAFCKNNHDMHATALSFRLLRQHGYRVSCEVFEKFKDGKDGFKVPNEDGAVAVLEFFEATHLRVHGEDVLDNAFDFTRNYLESVYATLNDPTAKQVHNALNEFSFRRGLPRVEARKYISIYEQYASHHKGLLKLAKLDFNLVQALHRRELSEDSRWWKTLQVPTKLSFVRDRLVESYFWASGSYFEPNYSVARMILAKGLAVLSLMDDVYDAYGTFEELQMFTDAIERWDASCLDKLPDYMKIVYKALLDVFEEVDEELIKLGAPYRAYYGKEAMKYAARAYMEEAQWREQKHKPTTKEYMKLATKTCGYITLIILSCLGVEEGIVTKEAFDWVFSRPPFIEATLIIARLVNDITGHEFEKKREHVRTAVECYMEEHKVGKQEVVSEFYNQMESAWKDINEGFLRPVEFPIPLLYLILNSVRTLEVIYKEGDSYTHVGPAMQNIIKQLYLHPVPY
modifications: Pogostemon cablin
[2]
  in vivo production of patchoulol from endogenous FPP: produced patchoulol
[1]; estimated by GC (FID), detected as the thermal rearrangement product β-element
  amount of (+)-germacrene A among sesquiterpenes produced: 1.6%
[1]; [3]
  amount of (Z,E)-α-farnesene among sesquiterpenes produced: 1.35%
  amount of (trans)-alpha-farnesene among sesquiterpenes produced: 3%
  amount of (−)-patchoulol among sesquiterpenes produced: 39.1%
  amount of alpha-guaiene among sesquiterpenes produced: 14%
  amount of alpha-humulene among sesquiterpenes produced: 1.1%
  amount of seychellene among sesquiterpenes produced: 4%
  amount of trans-β-caryophyllene among sesquiterpenes produced: 4.5%
  amount of trans-β-farnesene among sesquiterpenes produced: 3%
  amount of α-bulnesene among sesquiterpenes produced: 8.6%
  amount of α-patchoulene among sesquiterpenes produced: 8.9%
  amount of γ-patchoulene among sesquiterpenes produced: 2.5%
  amount of δ-patchoulene among sesquiterpenes produced: 2.1%
[1]
  main (major) sesquiterpene product formed: (−)-patchoulol
[1]; crude protein extract, GC-MS
  number of other sesquiterpenes produced besides the main product: at least 18

B4: PatTpsCF2: recombinant (+)-germacrene A synthase from patchouli, cDNA SEQ ID NO:3 (protein)
chain: MAVQISETVRPFANFSPNPSLWGDQFINHKSKTQQISRIYLEEIEGLKNEVKCMLTSTPEGKMADTVNLIDTLERLGVSYHFEKEIEEKMKHLFNLIKADNYKDHEGCDLYTDALHFRLFRQHGYPISSGIFNKWMDGNGKFKESIKSDAKGLLSLYEACCLRTHGDTLLDEALVFATASLKSMAANLASPLRKQVEHALFQHLHFGIPRVEARHFITFYEEEEHKNEMLLRFAKLDFNALQALHKEELSEISKWWKDLDLISKLPYARDRVVESYFWAVGVYYQPKYSRARIMLTKTIAMTAILDDTYDSYGTLEELDVLTKAIERWDIKEINGLPEYIKGFYKQVLKLYQQLEEELAKEGRSYAVYYAIEACKELARSYAVEAKWFKKGYLPGFEEYLINSLVTSTAGYLNIISFFGVESVTKEDFEWFSKKPRIAVATQIITRVIDDIATYEVEKEKGQSATGIDCYMKEHGVSKEKAMQRFYEMSTNAWKDINEEGLSWPSSFSRDIFVQLRNFSRMVDVTYGKNEDGYSKPEKILKPLIIALFVDQIKL
modifications: Pogostemon cablin
[1]
  main (major) sesquiterpene product formed: (+)-germacrene A
[1]; crude protein extract
  sesquiterpene synthase activity in recombinant E. coli protein extract: easily detected

B5: PatTpsB15: another recombinant (−)-germacrene D synthase from patchouli, cDNA SEQ ID NO:4 (protein)
chain: MDLNEITSSSRPLANYHPNVWGDRFLLHEPEFTCQAGEKQLVEELKEEVRRELKEASNDYLRQLKMVDAIQRLGIEYLFEEEIDEALRNLLAKFENYCKDNHDMYATALSFRLLRQHGYKVSCEVFDKFKDGEDGFKVEEVMAVLELFEATHMRIHGEDVLDQAFVFTRNYLQSIHATLSNPIAKQVHNALNGYSCRRGMPRIEARKYIPIYEEYGCHHKALLKLAKLDFNLLQSMHKRELTQLYRWWKDLEMPTKLPYIRDRLVETYFWDMGFYFEPQYALARNILVKVQCLVSIFDDTFDAYGAFKELQLFKDAIDRWSISCLDELPEYMQIIYKLVLDVFEEIESHMIKQGTSYRLDYAREAIKIVIGGYFDEAKWREEEYKPRMEEYMKVATKSAAYLTLIIVSFVGMKNDIATPQAFQWVLSEPQIITASLALARLSNDLVGIEFEKERKYIATAVELYEEEHKVSKEEAVLELRHETESAWKEINEALLEPTTFATPILDRILNSARVLEVFYDKTDRYTHVDLELQNIIAQLYIHPIP
modifications: Pogostemon cablin
[1]
  main (major) sesquiterpene product formed: (−)-germacrene D
[1]; crude protein extract
  sesquiterpene synthase activity in recombinant E. coli protein extract: relatively good metabolization of FFP
